The values that follow come from patent US20260049140A1 (JANUX THERAPEUTICS, published 2026).

The target in experiment [1] is T1, TCE-30.
T1 construct: anti-CD3 scFv H101A; anti-TROP2 Fab F108A
Kind of experiment: competition ELISA, peptide titrated vs TCE binding to captured CD3.

For experiment [2], the target named is T2, TCE-32.
T2 construct: anti-CD3 scFv F240A; anti-TROP2 Fab F108A
The experiment is described as above.

For experiment [3], the target named is T3, TCE-29.
T3 construct: anti-CD3 scFv wt; anti-TROP2 Fab F108A
Described as above.

For experiment [4], the target named is T4, TCE-33.
T4 construct: anti-CD3 scFv with P41S; E227D set of mutations; anti-TROP2 Fab F108A
Described as above.

Experiment [5] has as its target T5, human CD3ε-biotin (human, UniProt P07766 23-126, limits assumed, biotinylated (site not stated)).
T5 construct: also called CD3E-bio; CD3E-biotin
Kind of experiment: ELISA, biotinylated CD3ε on neutravidin plates.

Experiment [6] addresses T5, human CD3ε-biotin. Kind of experiment: BLI (Octet), summary table.
The target of experiment [7] is T6, human TROP2-biotin (human, UniProt P09758 27-274, limits assumed, biotinylated (site not stated)).
T6 construct: also called hTROP2-Biotin; Biotinylated TROP2
T6 sequence (looked up): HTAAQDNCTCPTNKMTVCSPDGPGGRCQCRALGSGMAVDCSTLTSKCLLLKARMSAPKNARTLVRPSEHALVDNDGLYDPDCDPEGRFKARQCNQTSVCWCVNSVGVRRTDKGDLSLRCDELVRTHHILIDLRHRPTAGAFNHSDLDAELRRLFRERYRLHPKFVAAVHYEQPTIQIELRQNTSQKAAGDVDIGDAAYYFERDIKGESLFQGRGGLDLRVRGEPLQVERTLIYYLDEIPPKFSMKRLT
The experiment is described as follows: BLI (Octet), human TROP2-biotin 10 nM on sensor, 50 nM TCE.

Experiment [8] addresses T5, human CD3ε-biotin. Kind of experiment: BLI (Octet), human CD3-biotin 10 nM on sensor, 50 nM TCE.
Experiment [9] concerns the target T7, TCE-15.
T7 construct: anti-CD3 scFv W112A; anti-TROP2 Fab wt; also called 3087
Kind of experiment: competition ELISA, peptide titrated vs TCE binding to captured CD3.

Experiment [10] addresses T8, TCE-24.
T8 construct: anti-CD3 scFv W238A; anti-TROP2 Fab wt; also called 3096
The description is as above.

The target of experiment [11] is T9, TCE-19.
T9 construct: anti-CD3 scFv W233A; anti-TROP2 Fab wt; also called 3091
Described as above.

Ends that are not written are not given here.

B1: Peptide-13 (peptide)
peptide: YLCGPDTDETLACY
modifications: cysteine pairing not given here; also: biotinylated, site not given here
In the case of B1, the half-inhibitory concentration (IC50) in [1], in experiment [2], in [3] and in experiment [4] was greater than 100 µM each time.

B2: TCE-26 (anti-CD3 scFv F240A; anti-TROP2 HC wt) (bispecific antibody)
light: DIQLTQSPSSLSASVGDRVSITCKASQDVSIAVAWYQQKPGKAPKLLIYSASYRYTGVPDRFSGSGSGTDFTLTISSLQPEDFAVYYCQQHYITPLTFGAGTKVEIKRTVAAPSVFIFPPSDEQLKSGTASVVCLLNNFYPREAKVQWKVDNALQSGNSQESVTEQDSKDSTYSLSSTLTLSKADYEKHKVYACEVTHQGLSSPVTKSFNRGEC
heavy: not shown
notes: scFv-Fab; the entry already carries the mutation; also called 3098
In experiment [5], B2 returned an EC50 of 0.0006 µM. The “CD3 t1/2” value in [6] worked out at 39 s.

B3: TCE-33 (anti-CD3 scFv, several mutations; anti-TROP2 (F108A) HC) (bispecific antibody)
light: DIQLTQSPSSLSASVGDRVSITCKASQDVSIAVAWYQQKPGKAPKLLIYSASYRYTGVPDRFSGSGSGTDFTLTISSLQPEDFAVYYCQQHYITPLTFGAGTKVEIKRTVAAPSVFIFPPSDEQLKSGTASVVCLLNNFYPREAKVQWKVDNALQSGNSQESVTEQDSKDSTYSLSSTLTLSKADYEKHKVYACEVTHQGLSSPVTKSFNRGEC
heavy: EVQLVESGGGLVQPGGSLKLSCAASGFTFNKYAMNWVRQASGKGLEWVGRIRSKYNNYATYYADSVKDRFTISRDDSKNTAYLQMNSLKTEDTAVYYCVRHGNFGNSYISYWAYWGQGTLVTVSSGGGGSGGGGSGGGGSQTVVTQEPSFSVSPGGTVTLTCRSSTGAVTSGNYANWVQQTPGQAPRGLIGGTKFLAPGVPDRFSGSILGNKAALTITGAQADDESDYYCVLWYSNRWVFGGGTKLTVLGGGGSQVQLQQSGSELKKPGASVKVSCKASGYTFTNYGMNWVKQAPGQGLKWMGWINTYTGEPTYTDDFKGRFAFSLDTSVSTAYLQISSLKADDTAVYFCARGGFGSSYWYADVWGQGSLVTVSSASTKGPSVFPLAPSSKSTSGGTAALGCLVKDYFPEPVTVSWNSGALTSGVHTFPAVLQSSGLYSLSSVVTVPSSSLGTQTYICNVNHKPSNTKVDKKVEPKSC
notes: scFv-Fab; the entry already carries the mutations
With B3, the dissociation constant (Kd) in experiment [7] turned out to be 0.00122 µM; in [8], 0.000467 µM.

B4: Peptide-11 (peptide)
peptide: GSACLGPEWEVCPY
modifications: cysteine pairing not given here; also: biotinylated when captured in ELISA
notes: also called 1596
With B4, the half-inhibitory concentration (IC50) in experiment [9], in experiment [10] and in experiment [11] was greater than 100 µM each time.
